Source: article PMC11852578, “Enhanced Site-Specific Fluorescent Labeling of Membrane Proteins Using Native Nanodiscs” (Biomolecules, 2025)
Substitutions are numbered along the chain they refer to. Names and notes keep the numbering of the source.

B1: KvAP wild type, archaeal voltage-gated potassium channel from Aeropyrum pernix, in DM detergent micelles (natural protein)
chain: GGRVRNIGDVMEHPLVELGVSYAALLSVIVVVVEYTMQLSGEYLVRLYLVDLILVIILWADYAYRAYKSGDPAGYVKKTLYEIPALVPAGLLALIEGHLAGLGLFRLVRLLRFLRILLIISRGSKFLSAIADAADKIRFYHLFGAVMLTVLYGAFAIYIVEYPDPNSSIKSVFDALWWAVVTATTVGYGDVVPATPIGKVIGIAVMLTGISALTLLIGTVSNMFQKILVGEPEPSCSPAKLAEMVSSMSEEEFEEFVRTLKNLRRLENSMK
notes: voltage-gated potassium channel KvAP, Aeropyrum pernix; native cysteine printed as C260; Labelling with AF647 maleimide failed in detergent, so the protein was unlabelled; also called wild-type KvAP; source: E. coli C43, pET21a-derived vector, membranes solubilised in DM, purified (Ni-NTA, SEC)
B2: KvAP wild type labelled with AF647 maleimide, in Glyco-DIBMA native nanodiscs (natural protein, Aeropyrum pernix)
chain: B1 chain
modifications: Alexa Fluor 647 maleimide on the native cysteine C260
notes: voltage-gated potassium channel KvAP, Aeropyrum pernix; native cysteine printed as C260; Same construct as m1, but labelled and in a polymer-encapsulated lipid nanodisc; also called wild-type KvAP; nanodisc-purified wild-type KvAP; source: E. coli C43, membranes extracted with Glyco-DIBMA, purified (Ni-NTA with on-column labelling, SEC)
B3: KvAP E275C single-cysteine mutant labelled with AF647 maleimide, in Glyco-DIBMA native nanodiscs (natural protein, Aeropyrum pernix)
chain: B1 chain with C236A, E251C
modifications: Alexa Fluor 647 maleimide on the introduced cysteine E275C
notes: voltage-gated potassium channel KvAP, Aeropyrum pernix; native cysteine mutated to alanine and cysteine introduced at E275; Same construct as m4, but labelled and in a nanodisc; also called mutant E275C; source: E. coli C43, membranes extracted with Glyco-DIBMA, purified (Ni-NTA with on-column labelling, SEC)
B4: KvAP E275C single-cysteine mutant, in DM detergent micelles (natural protein, Aeropyrum pernix)
chain: B1 chain with C236A, E251C
notes: voltage-gated potassium channel KvAP, Aeropyrum pernix; native cysteine mutated to alanine and cysteine introduced at E275; Labelling failed in detergent, so the protein was unlabelled; source: E. coli C43, pET21a-derived vector, membranes solubilised in DM, purified (Ni-NTA, SEC)
B5: KvAP K102C single-cysteine mutant, in DM detergent micelles (natural protein, Aeropyrum pernix)
chain: B1 chain with K78C, C236A
notes: voltage-gated potassium channel KvAP, Aeropyrum pernix; native cysteine mutated to alanine and cysteine introduced at K102; Labelling failed in detergent, so the protein was unlabelled; source: E. coli C43, pET21a-derived vector, membranes solubilised in DM, purified (Ni-NTA, SEC)
B6: KvAP K102C single-cysteine mutant labelled with AF647 maleimide, in Glyco-DIBMA native nanodiscs (natural protein, Aeropyrum pernix)
chain: B1 chain with K78C, C236A
modifications: Alexa Fluor 647 maleimide on the introduced cysteine K102C
notes: voltage-gated potassium channel KvAP, Aeropyrum pernix; native cysteine mutated to alanine and cysteine introduced at K102; Same construct as m3, but labelled and in a nanodisc; also called mutant K102C; source: E. coli C43, membranes extracted with Glyco-DIBMA, purified (Ni-NTA with on-column labelling, SEC)
B7: HpUreI L134C single-cysteine mutant, Helicobacter pylori proton-gated urea channel, in detergent (DDM or LDAO) (natural protein)
chain: MLGLVLLYVGIVLISNGICGLTKVDPKSTAVMNFFVGGLSIICNIVVITYSALHPTAPVEGAEDIAQVSHHLTSFYGPATGLLFGFTYLYAAINHTFGLDWRPYSWYSLFVAINTIPAAILSHYSDMLDDHKVCGITEGDWWAIIWLAWGVLWLTAFIENILKIPLGKFTPWLAIIEGILTAWIPAWLLFIQHWV
notes: urea channel HpUreI, Helicobacter pylori; The hexamer remained unlabelled in detergent; with TCEP only aggregated and non-hexameric oligomers were labelled; also called detergent-solubilized HpUreI; source: E. coli C43, membranes solubilised in DDM or LDAO, purified (cobalt beads, HRV 3C cleavage, SEC)
B8: HpUreI L134C single-cysteine mutant labelled with AF647 maleimide, in Glyco-DIBMA native nanodiscs (natural protein)
chain: B7 chain
modifications: Alexa Fluor 647 maleimide on the introduced cysteine L134C
notes: urea channel HpUreI, Helicobacter pylori; Same construct as m7, but labelled and in a nanodisc; no removal of the His tag is told for the nanodisc preparation; also called nanodisc-embedded HpUreI; source: E. coli C43, membranes extracted with Glyco-DIBMA, purified (Ni-NTA with on-column labelling, SEC)

Legend:
[1] = molecular target: the molecule itself; experiment: SEC; KvAP in 0.25% (w/v) DM micelles; Superdex 200 Increase 10/300; SEC buffer 100 mM KCl, 25 mM Tris, pH 8; size estimated against gel filtration standards
[2] = molecular target: the molecule itself; experiment: SEC; KvAP in Glyco-DIBMA native nanodiscs, labelled with AF647 maleimide; standard buffer 150 mM KCl, 50 mM Tris, pH 7.4; UV and fluorescence detection
[3] = molecular target: the molecule itself; experiment: fluorescence correlation spectroscopy (molecular brightness); SEC-purified, AF647-labelled protein in Glyco-DIBMA nanodiscs; brightness compared with free AF647 maleimide dye at the same laser power, assuming labelling of all monomers
[4] = molecular target: the molecule itself; experiment: SDS-PAGE; HpUreI L134C purified in LDAO instead of DDM
[5] = molecular target: the molecule itself; experiment: SEC; HpUreI L134C in Glyco-DIBMA native nanodiscs, labelled with AF647 maleimide; standard buffer 150 mM NaCl, 50 mM Tris, pH 7.4

Protein	stoichiometry N [1]	stoichiometry N [3]	other results
B1	4	–	–
B2	–	~4	stoichiometry N [2]: 4
B3	–	~4	–
B4	4	–	–
B5	4	–	–
B6	–	~4	–
B7	–	–	stoichiometry N [4]: 6
B8	–	~6	stoichiometry N [5]: 6
